Measured values from US5453371.

Molecular target: 4-phenylazo-benzyloxycarbonyl-L-Pro-Leu-Gly-L-Pro-D-Arg.HCl

Substance “Achromobacter collagenase gene product of Vibrio alginolyticus produced in recombinant Escherichia coli JM109 (plasmid pHUC14 or pLCO-1) (enzyme)” has a Collagenase activity of 189 U.
